Experimental data from patent US20140286898A1 (Amgen, published 2014).
Substitutions are numbered along the chain they refer to. Names and notes keep the numbering of the source.

T1: CD25 (IL-2Rα) on the surface of activated T cells (UniProt P01589 22-272, limits assumed)
T1 construct: whole, on cells; also called cell surface CD25
T1 sequence (looked up): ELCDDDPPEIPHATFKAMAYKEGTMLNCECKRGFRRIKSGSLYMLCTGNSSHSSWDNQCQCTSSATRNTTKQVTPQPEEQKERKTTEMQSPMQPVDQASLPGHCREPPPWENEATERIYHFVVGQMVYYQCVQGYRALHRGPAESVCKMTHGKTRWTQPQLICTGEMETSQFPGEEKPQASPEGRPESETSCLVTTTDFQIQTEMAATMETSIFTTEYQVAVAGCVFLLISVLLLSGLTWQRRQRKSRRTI

B1: HaMut1D (V69A, Q74P, N88D, C125A) (ligand)
chain: APTSSSTKKTQLQLEHLLLDLQMILNGINNYKNPKLTRMLTFKFYMPKKATELKHLQCLEEELKPLEEALNLAPSKNFHLRPRDLISDINVIVLELKGSETTFMCEYADETATIVEFLNRWITFAQSIISTLT
notes: IL-2 mutein without Fc; not shown: C-terminal FLAG and poly-His tag
B2: HaMut5D (K48E, V69A, Q74P, N88D, C125A) (ligand)
chain: B1 chain with K48E
notes: not shown: C-terminal FLAG and poly-His tag
B3: HaMut3D (K35R, V69A, Q74P, N88D, C125A) (ligand)
chain: B1 chain with K35R
notes: as for B2
B4: HaMut6D (E68D, V69A, Q74P, N88D, C125A) (ligand)
chain: B1 chain with E68D
notes: as for B2
B5: HaMut8D (K35R, K48E, E68D, N88D, C125A) (ligand)
chain: B1 chain with K35R, K48E, E68D, A69V, P74Q
notes: as for B2
B6: HaMut2D (N30S, V69A, Q74P, N88D, C125A) (ligand)
chain: B1 chain with N30S
notes: as for B2
B7: HaMut7D (N71R, V69A, Q74P, N88D, C125A) (ligand)
chain: B1 chain with N71R
notes: as for B2
B8: HaMut4D (T37A, V69A, Q74P, N88D, C125A) (ligand)
chain: B1 chain with T37A
notes: as for B2

These binders were tested against T1, CD25 (IL-2Rα) on the surface of … (assay: flow cytometry, binding to CD25 on the surface of activated T cells).

Kd | binding result | Binder
~2 nM | – | B1
– | binds | B2
– | binds | B3
– | binds | B4
– | binds | B5
– | binds | B6
~0.2 nM | – | B7
– | binds | B8
